Results taken from US7560245B2, “Luciferase and methods for measuring intracellular ATP using the same” (Kikkoman Corporation, priority 1997, dated 2009).
Changes are numbered by the printed parent chain. Values joined by “and” are separate entries in the source; they are usually repeats but may differ in a detail not shown here. Identical values can stand only once.

B1: HIK: Polypeptide of SEQ ID NO:6; HEIKE firefly luciferase with Ala217 substituted by Ile and Glu490 by Lys (protein, listed as Luciola lateralis)
chain: MENMENDENIVYGPEPFYPIEEGSAGAQLRKYMDRYAKLGAIAFTNALTGVDYTYAEYLEKSCCLGEALKNYGLVVDGRIALCSENCEEFFIPVLAGLFIGVGVAPTNEIYTLRELVHSLGISKPTIVFSSKKGLDKVITVQKTVTAIKTIVILDSKVDYRGYQSMDNFIKKNTPQGFKGSSFKTVEVNRKEQVALIMNSSGSTGLPKGVQLTHENIVTRFSHARDPIYGNQVSPGTAILTVVPFHHGFGMFTTLGYLTCGFRIVMLTKFDEETFLKTLQDYKCSSVILVPTLFAILNRSELLDKYDLSNLVEIASGGAPLSKEIGEAVARRFNLPGVRQGYGLTETTSAIIITPEGDDKPGASGKVVPLFKAKVIDLDTKKTLGPNRRGEVCVKGPMLMKGYVDNPEATREIIDEEGWLHTGDIGYYDEEKHFFIVDRLKSLIKYKGYQVPPAELESVLLQHPNIFDAGVAGVPDPIAGELPGAVVVLKKGKSMTEKEVMDYVASQVSNAKRLRGGVRFVDEVPKGLTGKIDGKAIREILKKPVAKM
B2: HLK: Polypeptide of SEQ ID NO:4; HEIKE firefly luciferase with Ala217 substituted by Leu and Glu490 by Lys (protein, listed as Luciola lateralis)
chain: B1 chain with I217L

What was measured:
E. coli ATCC 25922 = assay: Detection of intracellular ATP, 0.25% BAC extraction reagent; type: cell-based, Escherichia coli; conditions: for Relative ratio (%): TCA extraction method = 100%
Procedure: (§1) A standard technique used herein was TCA extraction method wherein intracellular ATP is extracted using trichloroacetic acid (TCA) and the amount of ATP extracted is measured using luciferin-luciferase luminescence reaction. TCA extraction method is excellent in extraction efficiency. Further in TCA extraction method no inhibition of luminescence reaction is caused by TCA because emission is measured after the sample containing TCA is diluted 1:100. Because of this dilution, however, TCA extraction method is complicated and can cause a decrease in the measuring sensitivity. Benzalkonium chloride (BAC, Japanese Pharmacopoeia) was used. ATP extraction reagent was prepared by dissolving this surfactant at 0.25% concentration into 25 mM Tricine (pH 7.75). Four strains, Escherichia coli (ATCC 25922), Staphylococcus aureus (ATCC 25923), Pseudomonas aeruginosa (ATCC 27853) and Enterococcus faecalis (ATCC 29212) were used. In standard techniques, a sample, undiluted solution, was prepared by culturing the prescribed microorganisms on a normal broth medium (produced by Eiken chemical Co., Ltd.) at 35° C. overnight. In the method of the present invention, a sample diluted solution was prepared by diluting an undiluted solution of the culture fluid to 1:100 with sterile water. Luminescence reagent was prepared by adding various luciferase to solution containing 0.15 mM luciferin, 6 mM EDTA, 15 mM magnesium acetate, 0.2 mM dithiothreitol, 0.5% BSA and 25 mM HEPES (pH 7.75). The amount of luciferase to be added was prepared such that the light emission produced when 100 μl of 2×10^−8 M ATP standard solution was added to 100 μl of the luminescence reagent would be the same amount of the light emission produced when a luminescence reagent attached to Luciferase LU (Kikkoman Corporation) was used. ATP extraction reagent 100 μl was added to 100 μl of a sample. The solution was allowed to stand for 20 seconds at room temperature. Then 100 μl of the luminescence reagent was added to this solution. Immediately after addition, the light emission was measured using Lumat LB-9501 produced by Berthold. 10% trichloro acetate solution 100 μl was added to 100 μl of a sample and the solution was allowed to stand for 1 minute. 25 mM Tricine (pH 7.75) 9.8 ml was added to this extract, and then the extract was well stirred. 25 mM Tricine (pH 7.75) and 100 μl of a luminescence reagent attached to CheckLite LU (produced by Kikkoman Corporation) were added to 100 µl of the sample. Immediately after addition, the light emission was measured using Lumat LB-9501 produced by Berthold. The relative ratio of the light emissions obtained by the use of the luminescence reagents using various luciferase types is also shown in these tables. Here the light emission obtained by the standard technique (TCA extraction method) was defined as 100%.

[1] = Comparison of IC50: benzalkonium chloride concentration inactivating luciferase by 50%; type: biochemical; conditions: 10 minutes contact at room temperature, 0.01 to 0.1% benzalkonium chloride
Procedure: Benzalkonium chloride and various luciferases were contacted with each other for 10 minutes. Then the benzalkonium chloride concentration (IC50), at which activity is inactivated by 50% was determined. Equal amounts of luciferase solution prepared at this concentration and 0.01 to 0.1% benzalkonium chloride were mixed, and then allowed to stand for 10 minutes at room temperature. Subsequently, 100 μl of substrate solution was added to the mixture. Immediately after addition, the light emission was measured using Berthold Lumat LB-9501.

[2] = Comparison of emission rate (remaining activity) with 0.4% benzalkonium chloride; type: biochemical; conditions: emission with 0.4% benzalkonium chloride divided by control (25 mM Tricine)
Procedure: (§2) Enzyme samples were obtained by preparing luciferase samples derived from various firefly species using enzyme-diluted solution (1 mM EDTA, 1 mM 2-mercaptoethanol, 5% glycerol, 50 mM HEPES, (pH7.5)) to achieve 0.5 MLU/ml concentration.
(§3) 50 μl of 0.4% benzalkonium chloride (25 mM Tricine at pH 7.75) and then 50 μl of the enzyme sample were added to 100 μl of substrate solution (4 mM ATP, 0.4 mM luciferin, 10 mM magnesium sulfate, 50 mM HEPES (pH 7.5)). After the solution was stirred for 5 seconds, the light emission was measured every second using Berthold Lumat LB-9501 for 1 minute.
The influence of the enzyme solution, substrate solution and benzalkonium chloride used when measuring change with time, on the measurement values taken under actual emission measurement conditions, was examined.
In addition, the emission rate (remaining activity) was calculated by dividing the light emission measured in the presence of 0.4% benzalkonium chloride by a control value. Here the control value was the light emission upon use of 25 mM Tricine at pH 7.75 instead of 0.4% benzalkonium chloride.

[3] = Surfactant resistance: change of light emission with time, 0.4% benzalkonium chloride; type: biochemical; conditions: for decay of light emission with time: FIG. 2 and 3
Procedure: as §2, §3
Along the vertical axis in this figure, the relative ratio of the light emission was plotted with the initial amount of light emitted considered to be 100% upon use of 25 mM Tricine (pH 7.75) instead of 0.4% benzalkonium chloride.
(§4) To compare surfactant resistance of mutant luciferase with that of known luciferase, changes in emission with time were measured according to the aforementioned methods of measuring surfactant resistance.

S. aureus ATCC 25923 = assay: Detection of intracellular ATP, 0.25% BAC extraction reagent; type: cell-based, Staphylococcus aureus; conditions: for Relative ratio (%): TCA extraction method = 100%
Procedure: as §1

[4] = tested on: Escherichia coli, Staphylococcus aureus, Pseudomonas aeruginosa and Enterococcus faecalis; assay: Detection of intracellular ATP, summary over the four strains; type: cell-based; conditions: 0.25% BAC extraction reagent
Procedure: as §1, with “In standard techniques, a sample, undiluted solution, was prepared by culturing the prescribed microorganisms on a normal broth medium (produced by Eiken chemical Co., Ltd.) at 35° C. overnight. In the method of the present invention, a sample diluted solution was prepared by diluting an undiluted solution of the culture fluid to 1:100 with sterile water.” left out, “ATP extraction reagent 100 μl was added to 100 μl of a sample. The solution was allowed to stand for 20 seconds at room temperature.” left out, “10% trichloro acetate solution 100 μl was added to 100 μl of a sample and the solution was allowed to stand for 1 minute. 25 mM Tricine (pH 7.75) 9.8 ml was added to this extract, and then the extract was well stirred.” left out, “Here the light emission obtained by the standard technique (TCA extraction method) was defined as 100%.” left out

[5] = Comparison of emission rate (remaining activity) with 0.4% benzalkonium chloride; type: biochemical; conditions: for Light emission (RLU) Without extraction reagent: 25 mM Tricine pH 7.75 instead of 0.4% benzalkonium chloride; for Light emission (RLU) Without extraction reagent / Light emission (RLU) With extraction reagent: 5 seconds waiting, 3 seconds measuring; for Light emission (RLU) With extraction reagent: 0.4% benzalkonium chloride
P. aeruginosa ATCC 27853 = assay: Detection of intracellular ATP, 0.25% BAC extraction reagent; type: cell-based, Pseudomonas aeruginosa; conditions: for Relative ratio (%): TCA extraction method = 100%
Procedure: as §1

E. faecalis ATCC 29212 = assay: as above; type: cell-based, Enterococcus faecalis; conditions: for Relative ratio (%): TCA extraction method = 100%
Procedure: as §1

[6] = Surfactant resistance: change of light emission with time, 0.8% benzethonium chloride; type: biochemical; conditions: FIG. 4
Procedure: as §2
[…] After the solution was stirred for 5 seconds, the light emission was measured every second using Berthold Lumat LB-9501 for 1 minute.
as §4

Molecule | Measured value (RLU) (E. coli ATCC 25922) | Relative ratio (%) (E. coli ATCC 25922) | IC50 (benzalkonium chloride concentration at which activity is inactivated by 50%) [1] [%] | Emission rate (remaining activity) [2] | initial light emission ([3]; FIG. 2) | decay of light emission with time [3] | Measured value (RLU) (S. aureus ATCC 25923) | Relative ratio (%) (S. aureus ATCC 25923) | emission of the luminescence reagent [4] | Light emission (RLU) Without extraction reagent [5] [RLU] | Light emission (RLU) With extraction reagent [5] [RLU] | luciferase activity (remaining) ([5]; in the presence of 0.1% benzalkonium chloride) | Measured value (RLU) (P. aeruginosa ATCC 27853) | Relative ratio (%) (P. aeruginosa ATCC 27853) | Measured value (RLU) (E. faecalis ATCC 29212) | Relative ratio (%) (E. faecalis ATCC 29212) | decay of light emission with time [6] | improvement of initial light emission ([3]; compared with HEIKE L mutant, FIG. 3)
North American firefly: luciferase derived from North American firefly, a commercial product (Sigma, L-9506) [reference compound] | 153 | (0.1) % | 0.014 | 21.6% | low in the initial light emission | decayed rapidly | 163 | (0.1) % | No emission was observed | 452563 | 97790 | about 20% | 553 | (0.3) % | 113 | (0.1) % |  | 
B1 | 97073 | (73.1) % | 0.032 | 89.3% |  | decayed more slowly than that of the HEIKE I mutant | 76533 | (58.8) % | more intense than that from wild-type HEIKE luciferase and thermostable luciferase | 386429 | 345159 |  | 131134 | (78.0) % | 7914 | (63.7) % | more slowly than that of HEIKE I mutant | 
B2 | 87981 | (66.3) % | 0.035 | 101.7% and ~100% |  | slower decay in the light emission | 72182 | (55.4) % | more intense than that from wild-type HEIKE luciferase and thermostable luciferase | 390289 | 396764 |  | 131815 | (78.4) % | 7998 | (64.4) % | slower decay in light emission than that of HEIKE L mutant | about 20%
